# ± gives the uncertainty stated by the source.
# Test: amyloid nucleation score (Sup35N fusion, yeast selection) (log enrichment); library NNK3; higher = more nucleation; inactive = no reads after selection
# Method in brief: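 Growth for 7 days at 30°C on medium lacking adenine and uracil followed a 24-hour induction with 100 μM copper sulfate of psi-negative yeast expressing peptides of 20 random codons fused to Sup35N. Input and output plasmid inserts were sequenced with Illumina, and sequences with under 100 input reads were excluded. Nucleation score is the DiMSum log enrichment of output over input reads, centred on the mode score of non-aggregating sequences.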
row,Substance,amyloid nucleation score
1,QLRICTR,-0.358 ± 1.1
2,STASILFIGVKYVM,0.889 ± 0.32
3,ISDTSCHIDTLRFLGRVRFL,inactive
4,QNMCAARPS,inactive
5,TDILLYMIFVLHVVSNGVLG,inactive
6,VWIWWEDSGITCLGYMVLDF,inactive
7,PTVQCC,inactive
8,GNFAM,inactive
9,LKQDVKTAVFFFGVD,1.1 ± 0.15
10,TLFEMYNVTFIMKNGLQES,1.96 ± 0.062
11,SCAKQLCYHGFLMGH,inactive
12,LFIECIRSGDDGCILWETWH,inactive
13,GVLSYNMIHT,inactive
14,RYWWNYWLLPRWFFVQLGSC,inactive
15,LLFMYSDMTYTWCIFYGELW,inactive
16,AYMKGVWFRDEKDISFLIWI,inactive
17,IMRLHC,inactive
18,ARDNDLLNCMMLGLFSRLAF,inactive
19,SNKECLLGIGWFASYKVIPT,inactive
20,VRGNYRNSFACRVLNHDQFW,inactive
21,SVYECNLIRDFIDRQGPNLA,2.25 ± 0.058
22,IYTVWMAKGVTPVQKGPSRY,inactive
23,VLVVPKQVTWEVGF,inactive

row,Substance,amyloid nucleation score
1,CEQDTCFIHISRYTTVNNTM,inactive
2,GCYWSRLGVDHRMPMFIARD,inactive
3,HVVGQDIRV,inactive
4,ENIVCLAGKQHNHEMG,inactive
5,MKEDSSYHWRLPHVTSTFVG,inactive
6,MMPDYKPR,inactive
7,LVFKLAEMCADPIKQRCCGL,inactive
8,EKNNNRDGTDAVVIGNHKAG,inactive
9,YTRCNISNMV,inactive
10,IFNLMFYFVVRNE,3.01 ± 0.071
11,ICVCEQSTVVYTKELSTFGA,0.012 ± 0.27
12,FYYNVRLRRAGWAYRITWTT,inactive
13,VSYRCSTICTNLVITVCLCD,0.25 ± 0.34
14,GYPFSRLSSVV,inactive
15,GMAWLVGWLGLRLLTYFGYR,inactive
16,LHVLPEQARTPRVTVPVFSP,-0.339 ± 1.1
17,FFRVYYRSTGGVNM,inactive
18,FYIYWLFPIIVSFDYVFSGL,inactive
19,KVCSVVLLGLFSYMYRGYVM,inactive
20,LSCVLTVGTKTLFRAQMTQV,inactive
21,VIGGVEREQQDRLKL,inactive
22,RPGTCNLLVDGHLSWFQSAT,-0.288 ± 1
23,TLTWHNVWGCICGKFLTV,inactive

row,Substance,amyloid nucleation score
1,QFSVCCCRHLPLYMTKAVIA,inactive
2,FNSAHDQAAQVRHLHVNVFL,3 ± 0.064
3,ICTDGVHGCMVGS,inactive
4,SGFLYCNLSKSSCYAFQAGG,inactive
5,GEYFCRNLNHID,inactive
6,AVRFNHAYISQKPQRMLL,inactive
7,TVPFTPIICESVFSD,inactive
8,DYRVNCFTCLYVVEVSHSHD,1.84 ± 0.061
9,IFWICWLGFVNCVYTAEIPT,inactive
10,HWTLKMTVQHVFMLGASCRY,inactive
11,RVMFMASVWSNCGLWSSGTS,1.39 ± 0.15
12,VQGIPELALMLSRARGRGV,inactive
13,VLNDFMCDFGSWPRVIVIRT,inactive
14,AAAMVKAMIDVITGKIPVAE,inactive
15,IIRAFDTYVCCKFGNCSVHM,2.59 ± 0.052
16,DGDYSWGFVIRCHGPRSWSR,inactive
17,IAMSRSACRYVFECYIYFFF,inactive
18,GWFMCVSTAWGVYNAYIPMQ,inactive
19,TFDPKL,inactive
20,YSFSRY,inactive
21,LVNGVHLREWVTPRVECGSF,inactive
22,RLLVGFIWSWLGISYFTRFL,inactive
23,YFILIYWSQCSMWYYVFKYG,inactive

row,Substance,amyloid nucleation score
1,CEVGQCQGYVELLSYIHYNS,inactive
2,WVYNGIIYGRLFMDLLWTGL,inactive
3,KKVLN,inactive
4,MLCFKPKPVRARNPGNILSH,inactive
5,LTDDSCCPRR,inactive
6,SYGKTFAMSYVW,inactive
7,MNRLNPRYMMIKYMDIQKWW,inactive
8,RASLEYVGKCWWDGPYIEGV,inactive
9,YIEAIYRDVPPECGTLLRTL,inactive
10,NSISSSRIAVNFAKYGNWDV,inactive
11,YSMFN,inactive
12,ICCTSS,inactive
13,FLLVSLAA,inactive
14,IVSWLVRMVSWGVCRK,inactive
15,MIRTFKNSYISNGHCMVRRH,inactive
16,YMKDALNLRPLRSSTALFLS,inactive
17,RWSTLIVTCSAGPSDFVCDG,inactive
18,LLIRTSLVGEIPLSVSVGCL,inactive
19,CEWNS,inactive
20,SYINHTIPRVLWAITLRYLI,inactive
21,VTVQLCSNLIMGTWRTRNVL,inactive
22,SYTPHY,inactive
23,WMMDEMLVFLTH,inactive

row,Substance,amyloid nucleation score
1,ISVVMDNSACG,inactive
2,DLGRNYIVNGIL,inactive
3,SMKGNSWF,inactive
4,IMRGITEGWEPLVVES,inactive
5,LYFYNIESLAMIFNMNENLV,2.31 ± 0.058
6,FTQSTCSSHSVLFLMDVTRG,inactive
7,NTCSCTGFTFAAGDV,-0.33 ± 0.39
8,LGKPASSTQSMWNSFVYWLP,inactive
9,MYRCKKGGLCKLSGCTSKAL,inactive
10,FPELSGDYLVIRMTVQFWSV,inactive
11,APAEIFDLLKSMNGTLCRMG,inactive
12,TFLLCVVDGCCICRRGSCAS,2.2 ± 0.096
13,VDNWFVFFYGYSGLLYGSHY,inactive
14,LDVQATIAFCVVVYASLYKR,inactive
15,WACIQK,inactive
16,DGHWVALREKSFSNQYRSET,inactive
17,DRLYGVSFVDF,inactive
18,IRNGYSRICRIQRLGSMGM,inactive
19,RKGNGMHKNSYSTARMYCGF,inactive
20,VTNQSFDQPESLVEM,inactive
21,CLCSDTNVK,inactive
22,HMMTRAASVSLSVQQ,inactive
23,VRDFGLPTWAQLAWMYNANG,-0.229 ± 1.1

row,Substance,amyloid nucleation score
1,LFNSRMCMPRFASASNLACL,inactive
2,TCLLRQCWNNVMS,inactive
3,ECLRLDCGTSRLYYYHLITM,0.814 ± 0.24
4,VHIYSCYTRALDGNGAHSNN,inactive
5,FFVFVR,1.3 ± 0.15
6,YVILGQDDHEKT,inactive
7,NIVISYPP,0.749 ± 0.11
8,SGSAQLECASSRAYVMIVHL,0.425 ± 0.18
9,KSTTACASRTYMCMHTGRNC,inactive
10,SFPWFDTYSLDVSWHISWRS,inactive
11,SLGTLISLPYTSA,inactive
12,KNYNNYMVSSNNLLVDIWLV,1.47 ± 0.12
13,SRDFKIGCWLKIRSVIDPVW,inactive
14,TIFECRRASFNVSVEMGR,inactive
15,VLDLCDVY,inactive
16,AIGYLCSALAKVSLFGKWSV,inactive
17,GGSARCNRLCWYAVLDVLLL,inactive
18,CRHTLSRHDVTRCNSEVSSL,inactive
19,HDDSTSNNSPVSRKPLSPWS,inactive
20,NKTDCETC,inactive
21,PFFCTMITYNGLVYDIFWRG,inactive
22,RCDCEFYTLKWQCEVYYRGR,inactive
23,FKLHCSDRYECTKDLSHLWC,inactive

row,Substance,amyloid nucleation score
1,ILQKQVTTRLSINSENLHL,0.256 ± 0.21
2,YIKLGYQYLYVGE,inactive
3,QNFPSTSHFNIYC,1.72 ± 0.094
4,MHWCN,0.228 ± 0.82
5,EMNVLCGTYKFQFGVASGVD,-0.385 ± 0.73
6,YTQFYSMILDRRFCFNSVEL,inactive
7,KFSCINVDPMHYSNSWTT,inactive
8,SDGIYV,inactive
9,IPYDSSLLNSSNVCYLI,inactive
10,HTRWLGYNSHRGYLFLMSKF,0.104 ± 0.9
11,GIYCMSVSWFNVDLDTTGNT,inactive
12,SSGNFA,inactive
13,FFYWSWVQPEPY,inactive
14,KRYSIMFSKASQ,0.986 ± 0.15
15,ASGVPIADYTNTLKRWWLSE,inactive
16,YDLRIYSKRVDPF,inactive
17,MSRGCCINLTLQIRVFWNTM,inactive
18,SIFIYDVPIVSRWRIFGKQS,inactive
19,KPQVPSN,inactive
20,ESGNSSAFMAVMRISGTDVV,inactive
21,RVEIRIIS,inactive

# — the supplement of paper PMC12042874
